Experimental data: patent US8853165B2, “Peptide having the ability to regenerate bone tissue and for binding to apatite” (Nano Intelligent Biomedical Engineering Corporation Co., …, priority 2010, dated 2014)
“And” between values parts separate entries of the source, which are not always exact repeats. Equal entries are not always repeated. Residues, ends and D or L forms follow the SMILES beside them. *: point of attachment. FITC = O=C1OC2(c3ccc(O)cc3Oc3cc(O)ccc32)c2ccc(NC(=S)*)cc21

Legend:
rabbit calvarial defect [1] = experiment: In vivo stability of FITC-labeled peptide on bone mineral grafted into calvarial defect (confocal microscope, blood fluorometer); conditions: 10 mg and 20 mg bone mineral grafted, blood before and 1, 3, 7, 14, 21, 28 days after graft
Method: In order to test in vivo stability, 10 equivalents of fluorescein isothiocyanate (FITC) was allowed to bind to the N-terminus by using triethylamine (1 ml per 1 g of resin) at the time of preparing the peptide of SEQ ID NO: 40. The peptide synthesis was confirmed by measuring the molecular weight thereof through MALDI-TOF.
The peptide of SEQ ID NO: 40, labeled with FITC, was precipitated in the bovine bone mineral (OCS-B, NIBEC). The resultant bone mineral was grafted into the rabbit calvarial defect, and then scarified after 4 weeks. After that, the bone mineral grafted into the calvarial defect was observed by using a confocal microscope (Olympus, Japan). The bone mineral with a binding peptide of SEQ ID NO: 40, labeled with FITC, in 10 mg and 20 mg was grafted into the rabbit calvarial defect. The blood was taken before the graft and 1 day, 3 days, 7 days, 14 days, 21 days, and 28 days after the graft, and then it was determined by using the Fluorometer whether or not the peptide was freed into the systemic blood.

[2] = Peptide release (elution) test from bone graft material in PBS at 37° C., HPLC; type: physicochemical, bovine; conditions: for Release of Peptide from Bone Mineral: PBS, 37° C., Lot Nos. 1-3
Method: 1200 mg of the peptide prepared in Example 1 was dissolved in 1 mL of tertiary distilled water, and then 4 g of bovine bone mineral (OCS-B, NIBEC) was added thereto, followed by deposition for 24 hours and then freeze-drying.
4 g of a bone graft material with a binding peptide was input to 20 mL of PBS, and then the peptide release test was conducted at 37° C. After 7 days, 20 Ml of elution solvent that was initially introduced was completely removed, and then 20 Ml of new elution solvent was again added to proceed elution at 37° C. In the above manner, the peptide elution test was conducted for 14 days, 28 days, 56 days, 84 days, and 100 days. After completion of elution, the bone graft material was collected and the peptide content was measured.
3 g of the bone graft material with a binding peptide was precisely weighed, and then made into powder. About 2 g of the powder corresponding to 160 mg of peptide was precisely weighed, which was then input to 40 mL of Solution A as mobile phase, followed by sonication for 1 hour. After that, extraction was conducted while stirring at 37±2° C. for 24 hours, and then the upper layer of the extracted solvent was separated by centrifuging at 3000 rpm for 10 minutes and then filtration with a 0.22 μm millipore filter. 1 mL thereof was taken therefrom, and mixed with 3 mL of Solution A, which was then filtered through a 0.22 μm millipore filter, then the filtrate was used as the test liquid.
The peptide standard product was dried in the desiccator (silica gel) for 5 hours, and then 10 mg thereof was precisely weighed, which was then dissolved by the addition of Solution A as a mobile phase, and then exactly 10 mL thereof was used as a standard liquid.
The test liquid and the standard liquid each 10 μl were tested under the following operating conditions for liquid chromatography, to obtain test liquid and standard liquid peak areas, AT and AS. Amount of peptide (mg)=amount of peptide standard product (mg)×
Meter: Analytical HPLC (Shimadzu, Japan)
Column: Filled with C18-bonded silica gel with 5 μm size (length: […], inner diameter: 4.6 mm)
Mobile phase: 0.1% trifluoroacetic acid/DDW (Solution A) 0.098% trifluoroacetic acid/acetonitrile (Solution B)
Detector: UV absorption spectrometer (measurement wavelength: 230 nm)
Column temperature: Constant at approximately 40° C.

rabbit calvarial defect [3] = experiment: In vivo bone regeneration capacity of peptide-bound bone graft material in calvarial defect; design: species or system rabbit (NewZealand white rabbit); conditions: peptide bound to bone graft material, 50 mg per 8 mm defect, 2 weeks after graft, histology
Text: Each of the peptides of SEQ ID NO: 35, SEQ ID NO: 36, and SEQ ID NO: 40, prepared in Example 1, was allowed to bind to a bone graft material by the same method as Example 2, which was then grafted into the rabbit calvarial defect. The bone regeneration capacity thereof was confirmed. An 8 mm-diameter circular bone defect was formed in the calvarial region of the anesthetized rabbit (NewZealand white rabbit, specific name: cuniculus). The bone graft material and the peptide-containing bone graft material were grafted into the bone defect with 50 mg for each defect, and the periosteum and skin were doubly sutured. The animal was sacrificed 2 weeks after the graft, and the taken sample was fixed in the formaline solution. The tissue was subjected to embedding to prepare a 20 μm-thick specimen. The prepared specimen was stained with basic fuchsin and toluidine blue to produce a nondemineralized sample. The thus produced sample was observed by an optical microscope, and photographed.

## CC[C@H](C)[C@H](NC(=O)[C@H](CC(=O)O)NC(=O)[C@@H]1CCCN1C(=O)[C@H](CCCNC(=N)N)NC(=O)[C@H](CCCNC(=N)N)NC(=O)[C@H](Cc1ccccc1)NC(=O)[C@H](CCCCN)NC(=O)[C@H](CCCCN)NC(=O)[C@H](CO)NC(=O)[C@H](CCCCN)NC(=O)[C@H](CO)NC(=O)[C@H](CCCNC(=N)N)NC(=O)[C@H](CC(C)C)NC(=O)CNC(=O)[C@H](Cc1ccc(O)cc1)NC(=O)[C@H](CCC(=O)O)NC(=O)[C@H](CCCNC(=N)N)NC(=O)[C@H](CO)NC(=O)[C@H](Cc1ccccc1)NC(=O)[C@H](CCC(=O)O)NC(=O)[C@H](Cc1c[nH]cn1)NC(=O)[C@@H]1CCCN1C(=O)[C@@H](NC(=O)[C@@H]1CCCN1C(=O)[C@H](CC(C)C)NC(=O)[C@@H](NC(=O)[C@H](CO)NC(=S)Nc1ccc2c(c1)C(=O)OC21c2ccc(O)cc2Oc2cc(O)ccc21)[C@@H](C)O)[C@@H](C)CC)C(=O)N[C@@H](CCC(N)=O)C(=O)N[C@@H](Cc1ccc(O)cc1)C(=O)N1CCC[C@H]1C(=O)N[C@@H](CC(=O)O)C(=O)N[C@@H](C)C(=O)N[C@H](C(N)=O)[C@@H](C)O [SEQ ID NO: 40, labeled with FITC] ({FITC}-STLPIPHEFSREYGLRSKSKKFRRPDIQYPDAT-NH2)
Rabbit calvarial defect [1]
  RFI values of blood (peptide freed into systemic blood): no differences as compared with the values before the graft

## NH2-STLPIPHEFSRE-YGLRSKSKKFRRPDIQYPDAT-COONH2 (H-STLPIPHEFSREYGLRSKSKKFRRPDIQYPDAT-NH2) [SEQ ID NO: 40]
[2]; after ending the 100 day elution, Lot Nos. 1, 2, 3
  Content of Peptide Remaining in Bone Mineral: 9.2 mg and 9.18 mg and 9.78 mg and 9.19 mg
[2]; day 7
  Release of Peptide from Bone Mineral: 0 mg
[2]; day 14
  Release of Peptide from Bone Mineral: 0 mg
[2]; day 28
  Release of Peptide from Bone Mineral: 0 mg
[2]; day 56
  Release of Peptide from Bone Mineral: 0 mg
[2]; day 84
  Release of Peptide from Bone Mineral: 0 mg
[2]; day 100
  Release of Peptide from Bone Mineral: 0 mg
[2]; elution test for 100 days, Lot No. 1, 2 and 3, retention time 14.196 min
  peak of the peptide in the elution liquid: not observed
Rabbit calvarial defect [3]
  bone regeneration effect: remarkably increased bone regeneration capacity as compared with A and B

## STLPIPHEFSRE (apatite binding peptide) [SEQ ID NO: 36]
Rabbit calvarial defect [3]
  bone regeneration effect: smallest

## YGLRSKSKKFRRPDIQYPDAT (partial peptide of bone sialoprotein) [SEQ ID NO: 35]
Rabbit calvarial defect [3]
  bone regeneration effect: increased bone regeneration effect as compared with A
